A short description of this data set: yeast display, Sf9 membrane polyspecificity reagent, FACS + sequencing; frameworks hold sequencing errors. The gist of the method: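 Nanobodies from a synthetic yeast display library (Saccharomyces cerevisiae BJ5465), induced 36–48 hours with galactose, were stained 1 hour at 4 °C with 10% biotinylated, detergent-solubilized Sf9 membrane reagent, enriched on streptavidin microbeads, then FACS-sorted. Anti-HA (expression) and streptavidin (reagent binding) fluorescence set low and high (top ~1%) gates. Polyreactivity labels come from the gate of origin. Genes were colony-PCR amplified, MiSeq 2 × 250 sequenced and filtered by CDR length.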
Take “QVQLVESGGGLVQAGGSLRLSCAASGNIFYANAMGWYRQAPGKERELVAGITVRGGRTYYADSVKGRFTISRDNAKNTVYLQMNSLKPEDNAVYYCAVRSRGSRYDYWGQGTQVNVSS”: the “polyreactivity (PSR sort gate)” value is recorded as “high polyreactivity”.

With “QVQLVESGGGLVQAGGSLRLSCAASGNIFYAYDMGWYRQAPGKERELVAAITNGDSTDYADSVKGRFTISRDNAKNTVYLQMNSLKPEDTAVYYCNADYLPEPWALGGSQYDYWGQGTQVTVSS”, the “polyreactivity (PSR sort gate)” value is given as “low polyreactivity”.

Regarding “QVQLVESGGGLVQAGGSLRLSCAASGNIFYGYAMGWYRQAPGKERELVAAITSDGITYYADSVKGRFTISRDNAKNTVYLQMNSLKPEDTAVYYCNVTQLYEYYKYYYWGQGTQVTVSS”, the “polyreactivity (PSR sort gate)” value was “low polyreactivity”. With “QVQLVESGGGLVQAGGSLRLSCAASGNIFYRKARGWYRQAPGKERELVAAITSGGGSTYYADSVKGRFTISRDNAKNTVYLQMNSLKPVDTAVYYCNAYAWNYFGIKVTYDYWGQGTQVTVSS” the entry was “high polyreactivity”; with “QVQLVESGGGLVQAGGSLRLSCAASGNIFYVYVMGWYRQAPGKERELVASITSGASTYYADSVKGRFTISRDNAKNTVYFQMNSLKPEDTAVYYCAAEALGGAGDYSTLYIYDYWGQGTQVTVSS”, “low polyreactivity”. With “QVQLVESGGGLVQAGGSLRLSCAASGNIIDANAIGWYRPAPGKERQLVAAITSSGGSTYYADSVKGRFTISRDNAKNTVYLQMNSLKPEDTAVYYCAKSHAIYYWWDESWGQGTQVTVSS” the entry was “low polyreactivity”.

Consider “QVQLVESGGGLVQAGGSLRLSCAASGNIISIYAMGWYRQAPGKEREFVASNDWSVASTYYADSVKGRFTISRDNAKNTVYLQMNSLKPEDTAVYYCAAELFGLKYGYYLSYDYWGQGTQVTVSS”, for which the “polyreactivity (PSR sort gate)” value is listed as “high polyreactivity”. For “QVQLVESGGGLVQAGGSLRLSCAASGNILFSYAMGWYRQAPRKERELVAAISSSGGSTYYADSVKGRFTISRDNAKNNVYLQMNSLKPEDTAVYYCARYSFYKYDYWGQGTQVTVSS” the value was “high polyreactivity”; for “QVQLVESGGGLVQAGGSLRLSCAASGNILSVYTLGWYRQAPGKERELVANITYSGDRTYADSVQVRFTISRDNAKTTVYLQMKILKPEDTAVYYCSKDGYPTGGPYWGGMDYWGQGTQVTVSS”, “low polyreactivity”; for “QVQLVESGGGLVQAGGSLRLSCAASGNNFSYNAMGWYRQAPGKERELVAAITTSSGRTYYADSVKGRFTISRDNAKNTVYLQMNSLKPEDTAVYFCNAVQRYQIGYWGQGTQVTVSS”, “high polyreactivity”. For “QVQLVESGGGLVQAGGSLRLSCAASGNNFYVNVMGSYRQAPGKEMEFVAAISTRGVSTSYADSVKGRFTISRDNAKYTVYLQMNSLKPEDTAVYYCAASFRRPQPKGTTYGYLGQGTQVTVSS” the value was “high polyreactivity”. For “QVQLVESGGGLVQAGGSLRLSCAASGNTFDYYAMGWYRQAPGKERELVAAIDSGTTTYYADSVKGRFTISRDNAKNTVYLQMNSLKPEDTAVYYCAAEYAYVPGWYEYWGQGTQVTVSS” the value was “high polyreactivity”.

Turning to “QVQLVESGGGLVQAGGSLRLSCAASGNTFDYYTMGWYRQAPGKERELVAAISWNGGSTYYADSVKGRFTISRDNAKTTVYLQMNSLKPEDSAVYYCAVLYRSEYDWGQGTQVTVSS”, the “polyreactivity (PSR sort gate)” value was “low polyreactivity”. For “QVQLVESGGGLVQAGGSLRLSCAASGNTFFPYTMGWYRQAPGKERELVAAITWSGVSTYYADSVKGRFTISRDNAKNTVYLQMNSLKPEDTAVYYCAARGPVYVSYPRQYGYWGQGTQVTVSS” the value was “high polyreactivity”. With “QVQLVESGGGLVQAGGSLRLSCAASGNTFGFYAMGWYRQAPGKERELVAGITSGDSTYYADSVKGRFTISRDNAKNTVYLQMNSLKPEDTAVYYCATAPYVTSRRYGPYEYWGQGTQGTVSS” the entry was “low polyreactivity”; with “QVQLVESGGGLVQAGGSLRLSCAASGNTFGKYAMGWSRQAPGKERELLATITRRGGSTYYADSVKGRFTISRDNAKNTVYLQMNSLNPEDTAVYYCAAVVRYRQGVTRSIMDYWGQGTQVTVSS”, “high polyreactivity”.

For “QVQLVESGGGLVQAGGSLRLSCAASGNTFGNYAMGWYRQAPGKERELVAAITTIGGSTYYADSVKGRFTISRDNAKNTVYLQMNRLKPEDTAVYYCAKVENRYPVGKYDYWGQGTQVTVSS”, the “polyreactivity (PSR sort gate)” value is given as “low polyreactivity”. In the case of “QVQLVESGGGLVQAGGSLRLSCAASGNTFGYNAMGWYRQAPGKERELVAAISSSGTRTYYADSVKGRFTISRDNAKNTVYLQMNSLKPEDTAVYYCNARSTRYKFGYWGQGTQVTVSS”, the “polyreactivity (PSR sort gate)” value is “high polyreactivity”. For “QVQLVESGGGLVQAGGSLRLSCAASGNTFISYAMGWYRQAPGKERELVAAITWSGGSTYYADSVKGRFTISRDNAKNTVYLQMNSLKPEDTAVYYCAKFTHNYYYWGQGTQVTVSS” the value was “high polyreactivity”; for “QVQLVESGGGLVQAGGSLRLSCAASGNTFKTNAMGWYRQAPGKERELVAAISSSGSTYYADSVKGRFTISRDNAKNTVYLQMNSLKPEDTAVYYCAVTYRRFYYWGQGTQVTVSS”, “high polyreactivity”.

In the case of “QVQLVESGGGLVQAGGSLRLSCAASGNTFNGYTMGWYRQATGKERELVAVISSYGGRTNYADSVKGRFTISRDNAKITLYLQLNSLKTEVTAVYYCAARSSRLPHIYGYWGQGTQVTVSS”, the “polyreactivity (PSR sort gate)” value is listed as “low polyreactivity”. Regarding “QVQLVESGGGLVQAGGSLRLSCAASGNTFNVYAMGWYRQAPGKERELVAAITLSGGSTYYADSVKGRFTISRDNAKNTVYLQMNSLKPEDTAVYYCNAEEVGTDYDYWGQGTQVTVSS”, the “polyreactivity (PSR sort gate)” value is listed as “low polyreactivity”. Take “QVQLVESGGGLVQAGGSLRLSCAASGNTFPLNAMGWYRQAPGKERDLVAGISRTGGSTYYADSVKGRFTISRDNAKNTVYLQMNSLKPEDTAVYYCAAQSRYWVVRMDYWGQGTQVTVSS”: the “polyreactivity (PSR sort gate)” value is recorded as “high polyreactivity”.

On to “QVQLVESGGGLVQAGGSLRLSCAASGNTFPVYAMGWYRQAPGKERELVAAINTSGGSTYYADSVKGRFTISRDNAKYTVYLQMNSLKPEDTAVYYCAADWSYYGDELYYWGQGTQVTVSS”, for which the “polyreactivity (PSR sort gate)” value is “low polyreactivity”.

On to “QVQLVESGGGLVQAGGSLRLSCAASGNTFPYYAMGWYRQAPGKEREYVATIDRGDGSTYYADSVKGRFTISRDNAKNTVYLQMNSVKPEDTAVYYCAKLRGAFIVPGRGYPIYYYWGQGTQVTVSS”, for which the “polyreactivity (PSR sort gate)” value is listed as “high polyreactivity”. For “QVQLVESGGGLVQAGGSLRLSCAASGNTFRAYAMGWYRQAPGKERELVATITWSGGITDYADSVKGRFTISRDNAKNTVSLQMNSLKPEDTAVYDCAARSYRWWNFNYWGQGTQVTVSS” the value was “high polyreactivity”; for “QVQLVESGGGLVQAGGSLRLSCAASGNTFRFYTMGWYRQAPGKERELVAAINSSGRTNYADSVKGRFTISRDNAKNTVYLQMNSLIPEDTAVYYCAADQQRSIDAPYGYWGQGTQVTVSS”, “low polyreactivity”. For “QVQLVESGGGLVQAGGSLRLSCAASGNTFRFYTMGWYRQAPGKERELVAAINSSGRTNYADSVKGRFTISRDNAKNTVYLQMNSLKPEDTAVYYCAADYYQWSSFLGVYEYDYWGQGTQVTVSS” the value was “low polyreactivity”; for “QVQLVESGGGLVQAGGSLRLSCAASGNTFRIYTMGWYRQAPGKERELVATITRRGGSTYYADSVKGRFTISRDNAKNTVYLQMNSLKPEDTAVYYCAARVRGTGVYGGYNYWGQGTQVTVSS”, “high polyreactivity”. For “QVQLVESGGGLVQAGGSLRLSCAASGNTFRRNVMGWYRQAPGKERELVAAINRGGSTTDADSVKGRFTISRDNAKNTVYLQMNSLKPEDTAVYYCNARTLFKWRHGHYYAYDYWGQGTQVTVSS” the value was “high polyreactivity”; for “QVQLVESGGGLVQAGGSLRLSCAASGNTFRVYTMGWYRQAPGKERELVAAINSSGRTNYADSVKGRFTISRDNAKNTVYLLMNCLKPEDTAVYYCAADYYQWSTFLGVYEYAYWGQGTQVTVSS”, “low polyreactivity”; for “QVQLVESGGGLVQAGGSLRLSCAASGNTFRWNAMGWYRQAPGKERELVAGISIDDGSNYADSVKGRFTISRDNAKKTVYLQMNSLTPEDTAVYDCNRDWALYVFGRHYHAYYSWGQGTHVTVSS”, “low polyreactivity”.

Consider “QVQLVESGGGLVQAGGSLRLSCAASGNTFRYYAMGWYRQAPGKERELVAVITTRGGSTNYADSVKGRFTISRDNAKNTVYLQMNSLKPEDTAVYYCAARPGIRSYPPGYGYWGQGTQVTVSS”, for which the “polyreactivity (PSR sort gate)” value is given as “low polyreactivity”. For “QVQLVESGGGLVQAGGSLRLSCAASGNTFSDYAMGWYRQAPGKERELVAAISSSGVRTYYADSVKGRYTISRDNAKNTVYLQINSLKPEDTAVSYCNAVLNQLSYIYPAVGFWGQGTLVTVSS”, the “polyreactivity (PSR sort gate)” value is recorded as “high polyreactivity”. As to “QVQLVESGGGLVQAGGSLRLSCAASGNTFSRYAMGWYRQAPGKERELVAAISYSTGSTRYADSVKGRFTISRDNAKNTVYLQMNSLKPEDTAVYYCAARAKSRGYWGQGTQVTVSS”, the “polyreactivity (PSR sort gate)” value is “high polyreactivity”. For “QVQLVESGGGLVQAGGSLRLSCAASGNTFSSNAMGWYRQAPGKERELVAAISWSGGRTYYADSVKGRFTISRDNAKNTVYLQMNSLKPEDTAVYYCAAALGRRRTGYDYWGQGTQVTVSS” the value was “high polyreactivity”; for “QVQLVESGGGLVQAGGSLRLSCAASGNTFTRNTMGWYRPAPGKERELVASISLSGASTYYADSVKGRFTISRDNAKNTVYLQMNSLKPEDTAVYYCAAEYFNYKTDVDYWGQGTQVTVSS”, “high polyreactivity”. With “QVQLVESGGGLVQAGGSLRLSCAASGNTFTWYTMGWYRQAPGKERELVAAISSSGGNTYYADSVKGRFTISRDNAKNTVYLQMNSLKPEDTAVYYCAADLSSAYGHDYRGQGTQVTVSS” the entry was “low polyreactivity”; with “QVQLVESGGGLVQAGGSLRLSCAASGNTFTWYTMGWYRQAPGKERELVAVITSDGSTYYADSVKGRFTISRDNAKNTVYLQMNSLKPEDTAVYYCNKATVTGQESYAYDYWGQGTQVTVSS”, “low polyreactivity”. For “QVQLVESGGGLVQAGGSLRLSCAASGNTFTWYTMGWYRQAPGKERELVAVMTSDGSTYYADSVKGRFTISRDNAKNTVSFQMNSLKPEDTAVYYCNRGVFDTFYYYPQVGFGYWGQGTQVTVSS” the value was “low polyreactivity”. In the case of “QVQLVESGGGLVQAGGSLRLSCAASGNTFTYYAMGWYRQAPGKERELVAAISSGGRTYYADSVKGRFTISRDNAKNTVYLQMNSLKPEDTAVYYCAARIKYGYPGPRYYYWGQGTQVTVSS”, the “polyreactivity (PSR sort gate)” value is “high polyreactivity”.

For the origin of these results see the nanobody polyreactivity screen of Harvey et al. (2022).
